Substrate in data set [1]: N[C@@H](CS)C(=O)O
As to the kind of experiment: Michaelis–Menten kinetics, Ala-NDA assay. The following applies: pyridoxal-5′-phosphate (PLP). The format is biochemical, Bacillus subtilis.

Substrate in data set [2]: N[C@@H](CS)C(=O)O
Kind of data set: purified protein. Conditions: pyridoxal-5′-phosphate (PLP) Cys displaces Lys250 and binds PLP to form Cys-aldimine; catalytic Cys389. The format is biochemical, Staphylococcus aureus.

B1: cysteine desulfurase SufS (BsSufS) (Bacillus subtilis subsp. subtilis str. 168) (protein)
chain: MNITDIREQFPILHQQVNGHDLVYLDSAATSQKPRAVIETLDKYYNQYNSNVHRGVHTLGTRATDGYEGAREKVRKFINAKSMAEIIFTKGTTTSLNMVALSYARANLKPGDEVVITYMEHHANIIPWQQAVKATGATLKYIPLQEDGTISLEDVRETVTSNTKIVAVSHVSNVLGTVNPIKEMAKIAHDNGAVIVVDGAQSTPHMKIDVQDLDCDFFALSSHKMCGPTGVGVLYGKKALLENMEPAEFGGEMIDFVGLYESTWKELPWKFEAGTPIIAGAIGLGAAIDFLEEIGLDEISRHEHKLAAYALERFRQLDGVTVYGPEERAGLVTFNLDDVHPHDVATVLDAEGIAVRAGHHCAQPLMKWLDVTATARASFYLYNTEEEIDKLVEALQKTKEYFTNVF
As to B1, in data set [1], the Michaelis-Menten constant (Km) amounted to 440 ± 190 µM, the kcat is 0.0817 ± 0.0117 s⁻¹ and the kcat/Km came out at 185 ± 107 M⁻¹ s⁻¹.

B2: cysteine desulfurase SufS (SaSufS) (Staphylococcus aureus subsp. aureus USA300) (protein)
chain: MAEHSFDVNEVIKDFPILDQKVNGKRLAYLDSTATSQTPVQVLNVLEDYYKRYNSNVHRGVHTLGSLATDGYENARETVRRFINAKYFEEIIFTRGTTASINLVAHSYGDANVEEGDEIVVTEMEHHANIVPWQQLAKRKNATLKFIPMTADGELNIEDIKQTINDKTKIVAIAHISNVLGTINDVKTIAEIAHQHGAIISVDGAQAAPHMKLDMQEMNADFYSFSGHKMLGPTGIGVLFGKRELLQKMEPIEFGGDMIDFVSKYDATWADLPTKFEAGTPLIAQAIGLAEAIRYLERIGFDAIHKYEQELTIYAYEQMSAIEGIEIYGPPKDRRAGVITFNLQDVHPHDVATAVDTEGVAVRAGHHCAQPLMKWLNVSSTARASFYIYNTKEDVDQLINALKQTKEFFSYEF
For the protein B2, in data set [2], the Km was determined as 600 ± 170 µM, the kcat amounted to 0.0683 ± 0.00833 s⁻¹ and the kcat/Km was found to be 113 ± 45 M⁻¹ s⁻¹.

The values are drawn from PMC11851464, “Development of a Spectrophotometric Assay for the Cysteine Desulfurase from Staphylococcus aureus” (Antibiotics, 2025).
